This is an account of results in patent US20250042992A1 (University of California, published 2025).

Assay [1] has as its target T1, DLK1 ECD-mFc short form (human DLK1-MB, isoform 2) (human, UniProt P80370 24-228).
T1 construct: also called short form of the human DLK1 protein (ELISA coat); not shown: mFc (monomeric immunoglobulin Fc domain)
T1 sequence: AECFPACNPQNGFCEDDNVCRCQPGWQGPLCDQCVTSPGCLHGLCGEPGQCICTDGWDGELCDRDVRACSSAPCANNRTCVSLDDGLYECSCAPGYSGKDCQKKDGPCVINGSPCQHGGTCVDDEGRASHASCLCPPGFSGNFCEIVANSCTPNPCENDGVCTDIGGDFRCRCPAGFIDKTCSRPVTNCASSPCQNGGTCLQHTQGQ
Description: ELISA, plate coated with short form of DLK1 ECD-mFc (isoform 2), anti-human IgG Fc-HRP, OD450nm. On the procedure: (§1) Plates were incubated with DLK1 Abs serially diluted 2-fold starting from 400 ng/ml in 5% BSA/PBS at RT for 1.5 hrs. Mouse anti-human IgG Fc secondary antibody conjugated to HRP (Novus catalog number: NBP1-78623H) at 1:3000 dilution was applied to each well at 50 μl/well and further incubated at RT for 1 hr. The ELISA was developed first with Thermo Scientific Pierce 1-Step™ Ultra TMB-ELISA substrate solution and then with addition of sulfuric acid stop solution. The ELISA plate was read on a plate reader at 450 nm.
(In general: In an ELISA, binding on a coated surface is turned into a signal by an enzyme label.)

Assay [2] concerns the target T2, DLK1 ECD-mFc long form (human DLK1-FL, isoform 1) (human, UniProt P80370 24-303).
T2 construct: also called long form of the human DLK1 protein (ELISA coat); not shown: mFc (monomeric immunoglobulin Fc domain)
T2 sequence: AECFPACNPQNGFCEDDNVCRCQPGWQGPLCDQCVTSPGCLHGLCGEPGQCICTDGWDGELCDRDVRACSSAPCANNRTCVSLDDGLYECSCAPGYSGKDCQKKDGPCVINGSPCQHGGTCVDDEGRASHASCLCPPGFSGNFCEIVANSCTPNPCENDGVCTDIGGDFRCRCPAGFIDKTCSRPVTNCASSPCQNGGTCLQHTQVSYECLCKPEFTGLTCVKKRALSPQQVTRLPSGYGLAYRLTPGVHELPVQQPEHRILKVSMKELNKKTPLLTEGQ
Description: ELISA, plate coated with long form of DLK1 ECD-mFc (isoform 1), anti-human IgG Fc-HRP, OD450nm. On the procedure: as §1

The target of assay [3] is T3, mouse DLK1 fused to mGFP, overexpressed on HEK293T cells (mouse, UniProt Q09163 24-385).
T3 construct: not shown: mGFP fluorescent protein fused to DLK1
T3 sequence: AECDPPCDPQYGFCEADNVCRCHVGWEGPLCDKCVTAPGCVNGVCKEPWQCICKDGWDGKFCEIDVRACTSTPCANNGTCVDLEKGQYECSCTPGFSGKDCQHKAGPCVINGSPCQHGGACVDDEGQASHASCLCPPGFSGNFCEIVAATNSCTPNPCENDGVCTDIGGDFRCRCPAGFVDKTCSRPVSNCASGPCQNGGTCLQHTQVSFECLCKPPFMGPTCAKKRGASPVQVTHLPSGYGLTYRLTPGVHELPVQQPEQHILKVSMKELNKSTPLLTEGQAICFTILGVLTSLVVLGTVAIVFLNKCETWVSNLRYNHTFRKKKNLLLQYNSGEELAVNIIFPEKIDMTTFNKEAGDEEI
Description: flow cytometry, row HEK293T Mouse DLK1mGFP mass.

In assay [4] the target is T4, human DLK1 short form (isoform 2, DLK1-MB) fused to mGFP, expressed on HEK293T cells (human, UniProt P80370 24-383).
T4 sequence: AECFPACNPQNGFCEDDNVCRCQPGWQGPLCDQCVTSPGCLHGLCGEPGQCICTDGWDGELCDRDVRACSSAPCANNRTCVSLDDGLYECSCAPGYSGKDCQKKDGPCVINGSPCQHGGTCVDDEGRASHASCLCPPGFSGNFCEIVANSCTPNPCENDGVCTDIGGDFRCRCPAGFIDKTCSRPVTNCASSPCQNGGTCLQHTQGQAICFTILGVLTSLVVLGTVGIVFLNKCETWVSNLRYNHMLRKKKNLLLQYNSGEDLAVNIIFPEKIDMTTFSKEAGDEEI
Description: cell-based or functional assay.

The target of assay [5] is T5, rat DLK1 fused to mGFP, overexpressed on HEK293T cells (rat, UniProt O70534 24-383).
T5 construct: whole, on cells; not shown: mGFP fluorescent protein fused to DLK1
T5 sequence (looked up): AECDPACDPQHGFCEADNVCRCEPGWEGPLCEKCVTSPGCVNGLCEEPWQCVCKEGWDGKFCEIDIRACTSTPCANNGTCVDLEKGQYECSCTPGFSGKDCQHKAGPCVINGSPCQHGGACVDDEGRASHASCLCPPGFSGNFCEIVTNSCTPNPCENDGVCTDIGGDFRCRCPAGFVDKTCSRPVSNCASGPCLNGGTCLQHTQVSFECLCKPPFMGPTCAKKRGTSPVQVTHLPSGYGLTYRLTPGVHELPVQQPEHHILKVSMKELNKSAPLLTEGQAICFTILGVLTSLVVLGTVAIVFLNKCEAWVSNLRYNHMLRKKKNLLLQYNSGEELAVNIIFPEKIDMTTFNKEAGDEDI
The assay can be described thus: flow cytometry, row HEK293T Rat DLK1mGFP mass pop.

The target in assay [6] is T2, DLK1 ECD-mFc long form (human DLK1-FL, …). The assay can be described thus: ELISA, plate coated with DLK1 ECD-mFc long form. On the procedure:
as §1

Assay [7] has as its target either the long or short form of the human DLK1 protein (DLK1 ECD-mFc long form or short form, ELISA coat). The assay can be described thus: ELISA, plates coated with DLK1 ECD-mFc long form or short form, anti-human IgG Fc-HRP detection.
The target in assay [8] is T5, rat DLK1 fused to mGFP, overexpressed …. The assay can be described thus: KinExA on cells, row HEK293T Rat DLK1mGFP mass pop. (In general: A kinetic exclusion assay measures how much of one partner remains free in solution.)
Assay [9] addresses human DLK1-overexpressed on surface of HEK293T cells or DLK1-positive COR-L279 cells. The assay can be described thus: affinity on cells (HEK293T overexpressing human DLK1 or COR-L279); method not stated in the sentence (KinExA is named for FIG. 11).
For assay [10], the target named is T3, mouse DLK1 fused to mGFP, overexpressed …. Description: KinExA on cells, row HEK293T Mouse DLK1mGFP mass.

Broadly, the EC50 is the concentration giving half of the maximal effect. Low values mean an effect from little substance, high ones a need for much substance. By Kd is commonly meant a measure of binding affinity in units of concentration.

B1: humanized anti-DLK1 antibody 04-0561-F1 (IgG1) (antibody, V domains shown)
VH: QVQLQESGPGLVKPSETLSLTCTVSGFSLSIYSVHWVRQPPGKGLEWIGLIWGGGSTDYNPSLKSRVTISKDTSKNQVSLKLSSVTAADTAVYYCARKEGNYLWFAYWGQGTLVTVSS
VL: DIVMTQSPDSLAVSLGERVTMNCKSSQSLLQSSNQKNYLAWYQQKPGQPPKLLVYFASTRESGVPDRFSGSGSGTDFTLTISSVQAEDVAVYYCQQHYSIPLTFGQGTKLEIKR
As for B1, the EC50 in assay [1] is 0.81 nM; in [2], 0.87 nM; in [7] it was 0.81 to 0.87 nM. Besides, the binding result in assay [3] and in assay [5] was “no binding (tested: 20µg/ml)” each time. The “ADCC reporter assay: NFAT activation (Lucia luciferase) in Jurkat-Lucia NFAT-CD16 effector cells, EC50” value in assay [4] was approximately 101 ng/mL. The “fold higher binding affinity than LegoChem 18A5 antibody for human DLK1-FL” value in [6] was more than 20 fold.

B2: humanized anti-DLK1 antibody 04-0547-h2 (IgG1) (antibody, V domains shown)
VH: EVQLVESGGGLVQPGGSLRLSCAASGFSISDYYMAWVRQAPGKGLEWVANINYDGTNTYYADSVKGRFTISRDNSKNTLYLQMNSLRAEDTAVYYCVRSYYYYGMEYWGQGTTVTVSS
VL: DIQMTQSPSSLSASVGDRVTITCRASHDVSTAVAWYQQKPGKAPKLLIYSASYRYTGVPSRFSGSGSGTDFTLTISSLQPEDFATYYCQQHYRIPLTFGQGTKLEIK
notes: human kappa (P01834) and human IgG1 (P01857) constant regions
For B2, the equilibrium dissociation constant (Kd) in assay [8] was 5.96 nM; in assay [9], 5 to 9 nM; in [10], 13 nM.
